The record followed here is PMC4551919 (Nucleic Acids Research, 2015).

Common to all, as to assay: MST
In experiment [1] the target is SMG-1–8–9 complex (human | , UniProt Q96Q15;Q8ND04;Q9H0W8).
The target in experiment [2] is SMG-1, full length, SBP-tagged (human, UniProt Q96Q15 1-3661).
In experiment [3] the target is SMG-1ΔC-8–9 complex (human | , UniProt Q96Q15;Q8ND04;Q9H0W8, deleted from the residues 2442 to 3591).
The target in experiment [4] is SMG-1–9 complex (human | , UniProt Q96Q15;Q9H0W8).

B1: UPF1, full length, fluorescently labeled with NT-547 (natural protein)
chain: MSVEAYGPSSQTLTFLDTEEAELLGADTQGSEFEFTDFTLPSQTQTPPGGPGGPGGGGAGGPGGAGAGAAAGQLDAQVGPEGILQNGAVDDSVAKTSQLLAELNFEEDEEDTYYTKDLPIHACSYCGIHDPACVVYCNTSKKWFCNGRGNTSGSHIVNHLVRAKCKEVTLHKDGPLGETVLECYNCGCRNVFLLGFIPAKADSVVVLLCRQPCASQSSLKDINWDSSQWQPLIQDRCFLSWLVKIPSEQEQLRARQITAQQINKLEELWKENPSATLEDLEKPGVDEEPQHVLLRYEDAYQYQNIFGPLVKLEADYDKKLKESQTQDNITVRWDLGLNKKRIAYFTLPKTDSGNEDLVIIWLRDMRLMQGDEICLRYKGDLAPLWKGIGHVIKVPDNYGDEIAIELRSSVGAPVEVTHNFQVDFVWKSTSFDRMQSALKTFAVDETSVSGYIYHKLLGHEVEDVIIKCQLPKRFTAQGLPDLNHSQVYAVKTVLQRPLSLIQGPPGTGKTVTSATIVYHLARQGNGPVLVCAPSNIAVDQLTEKIHQTGLKVVRLCAKSREAIDSPVSFLALHNQIRNMDSMPELQKLQQLKDETGELSSADEKRYRALKRTAERELLMNADVICCTCVGAGDPRLAKMQFRSILIDESTQATEPECMVPVVLGAKQLILVGDHCQLGPVVMCKKAAKAGLSQSLFERLVVLGIRPIRLQVQYRMHPALSAFPSNIFYEGSLQNGVTAADRVKKGFDFQWPQPDKPMFFYVTQGQEEIASSGTSYLNRTEAANVEKITTKLLKAGAKPDQIGIITPYEGQRSYLVQYMQFSGSLHTKLYQEVEIASVDAFQGREKDFIILSCVRANEHQGIGFLNDPRRLNVALTRARYGVIIVGNPKALSKQPLWNHLLNYYKEQKVLVEGPLNNLRESLMQFSKPRKLVNTINPGARFMTTAMYDAREAIIPGSVYDRSSQGRPSSMYFQTHDQIGMISAGPSHVAAMNIPIPFNLVMPPMPPPGYFGQANGPAAGRGTPKGKTGRGGRQKNRFGLPGPSQTNLPNSQASQDVASQPFSQGALTQGYISMSQPSQMSQPGLSQPELSQDSYLGDEFKSQIDVALSQDSTYQGERAYQHGGVTGLSQY
modifications: NT-547 dye on amines, on average one fluorescent moiety per UPF1 molecule
As to B1, the Kd was 38 nM in experiment [1], 75 nM in experiment [2], 221 nM in experiment [3] and 56 nM in experiment [4].
